In article PMC2680492 (The Journal of neuroscience : the official journal of the …, 2008):
Blank lines part the entries; values can stand above or below the binder they belong to.

Tests used:
Experiment in all cases: pull-down
His×6-DD1-FLAG = target: T1, His×6-DD1-FLAG (human, UniProt Q9UBN7 106-439)
T1 sequence (looked up): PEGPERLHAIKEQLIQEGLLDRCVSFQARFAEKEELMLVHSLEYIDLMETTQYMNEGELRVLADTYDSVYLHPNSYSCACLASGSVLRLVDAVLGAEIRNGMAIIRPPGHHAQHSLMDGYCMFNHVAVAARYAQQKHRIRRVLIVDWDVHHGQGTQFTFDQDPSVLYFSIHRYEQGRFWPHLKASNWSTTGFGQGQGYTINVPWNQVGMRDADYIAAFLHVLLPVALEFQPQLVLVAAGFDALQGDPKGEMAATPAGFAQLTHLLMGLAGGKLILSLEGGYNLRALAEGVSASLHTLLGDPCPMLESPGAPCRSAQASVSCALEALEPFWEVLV

His×6-HDAC6-FLAG = target: T2, His×6-HDAC6-FLAG (human, UniProt Q9UBN7 1-1215)
T2 sequence (looked up): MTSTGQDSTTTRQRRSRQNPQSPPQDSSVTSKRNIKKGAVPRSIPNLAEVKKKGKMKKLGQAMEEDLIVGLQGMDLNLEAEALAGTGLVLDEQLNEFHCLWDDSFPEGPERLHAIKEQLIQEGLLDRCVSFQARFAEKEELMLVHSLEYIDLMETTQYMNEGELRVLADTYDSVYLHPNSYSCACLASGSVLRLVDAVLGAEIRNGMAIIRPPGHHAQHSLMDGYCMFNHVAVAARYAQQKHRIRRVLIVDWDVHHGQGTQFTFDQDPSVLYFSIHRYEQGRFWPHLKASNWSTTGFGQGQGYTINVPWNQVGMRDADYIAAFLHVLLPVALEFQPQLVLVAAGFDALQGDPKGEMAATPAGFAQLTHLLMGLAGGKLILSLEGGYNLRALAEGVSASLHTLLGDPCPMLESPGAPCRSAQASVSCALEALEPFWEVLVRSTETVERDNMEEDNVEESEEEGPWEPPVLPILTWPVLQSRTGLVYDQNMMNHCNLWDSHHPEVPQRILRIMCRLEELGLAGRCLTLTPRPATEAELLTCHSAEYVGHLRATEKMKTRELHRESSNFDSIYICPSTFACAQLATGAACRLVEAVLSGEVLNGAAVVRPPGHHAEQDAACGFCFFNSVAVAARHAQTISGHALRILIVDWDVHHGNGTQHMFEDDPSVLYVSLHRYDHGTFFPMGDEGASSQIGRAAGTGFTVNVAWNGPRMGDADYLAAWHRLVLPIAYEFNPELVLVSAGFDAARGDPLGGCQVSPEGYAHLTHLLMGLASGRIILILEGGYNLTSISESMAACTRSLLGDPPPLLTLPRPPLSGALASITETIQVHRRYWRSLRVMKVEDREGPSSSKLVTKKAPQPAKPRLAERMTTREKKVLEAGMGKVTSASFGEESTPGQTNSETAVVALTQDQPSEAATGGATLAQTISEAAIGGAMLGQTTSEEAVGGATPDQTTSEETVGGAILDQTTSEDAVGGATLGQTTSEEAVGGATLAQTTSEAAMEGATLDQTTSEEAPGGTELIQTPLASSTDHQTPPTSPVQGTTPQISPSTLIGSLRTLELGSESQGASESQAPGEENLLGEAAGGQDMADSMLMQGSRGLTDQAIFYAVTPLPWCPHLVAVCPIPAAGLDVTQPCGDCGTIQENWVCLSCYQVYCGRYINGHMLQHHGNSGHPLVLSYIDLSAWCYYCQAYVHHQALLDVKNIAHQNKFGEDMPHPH

His×6-DD2-FLAG = target: T3, His×6-DD2-FLAG (human, UniProt Q9UBN7 440-840)
T3 sequence (looked up): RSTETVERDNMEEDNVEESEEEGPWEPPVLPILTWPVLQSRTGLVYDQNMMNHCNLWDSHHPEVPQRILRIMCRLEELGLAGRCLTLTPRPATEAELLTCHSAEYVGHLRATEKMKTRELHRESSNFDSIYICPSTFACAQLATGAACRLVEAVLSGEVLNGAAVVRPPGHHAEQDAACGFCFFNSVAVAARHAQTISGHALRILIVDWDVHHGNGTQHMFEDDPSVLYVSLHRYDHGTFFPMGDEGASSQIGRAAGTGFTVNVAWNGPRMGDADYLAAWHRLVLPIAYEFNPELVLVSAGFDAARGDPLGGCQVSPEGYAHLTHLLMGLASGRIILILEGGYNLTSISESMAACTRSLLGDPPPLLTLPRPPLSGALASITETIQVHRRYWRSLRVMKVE

- binding result (His×6-DD1-FLAG): binds
- binding result (His×6-HDAC6-FLAG): binds
B1: GST-tagged parkin Linker domain (L) (domain or fragment, human, UniProt O60260 77-237, looked up)
chain: GQEMNATGGDDPRNAAGGCEREPQSLTRVDLSSSVLPGDSVGLAVILHTDSRKDSPPAGSPAGRSIYNSFYVYCKGPCQRVQPGKLRVQCSTCRQATLTLTQGPSCWDDVLIPNRMSGECQSPHCPGTSAEFFFKCGAHPTSDKETSVALHLIATNSRNIT

- binding result (His×6-HDAC6-FLAG): binds
- binding result (His×6-DD2-FLAG): binds
B2: GST-tagged parkin RING2 domain (R2) (domain or fragment, human, UniProt O60260 395-465, looked up)
chain: ERAAEQARWEAASKETIKKTTKPCPRCHVPVEKNGGCMHMKCPQPQCRLEWCWNCGCEWNRVCMGDHWFDV

- binding result (His×6-DD1-FLAG): binds
- binding result (His×6-HDAC6-FLAG): binds
B3: GST-tagged parkin RING1 domain (R1) (domain or fragment, human, UniProt O60260 217-310, looked up)
chain: TSDKETSVALHLIATNSRNITCITCTDVRSPVLVFQCNSRHVICLDCFHLYCVTRLNDRQFVHDPQLGYSLPCVAGCPNSLIKELHHFRILGEE
